Test: LDH release into supernatant, 24 h
Settings: glycan lost; control: WT-transfected BV2 cells plus LPS, co-cultured with neurons

B1: CD200R1 (CD200 receptor 1): N44Q (protein)
parent chain: MFCFWRTSALAVLLIWGVFVAGSSCTDKNQTTQNNSSSPLTQVNTTVSVQIGTKALLCCFSIPLTKAVLITWIIKLRGLPSCTIAYKVDTKTNETSCLGRNITWASTPDHSPELQISAVTLQHEGTYTCETVTPEGNFEKNYDLQVLVPPEVTYFPEKNRSAVCEAMAGKPAAQISWSPDGDCVTTSESHSNGTVTVRSTCHWEQNNVSDVSCIVSHLTGNQSLSIELSRGGNQSLRPYIPYIIPSIIILIIIGCICLLKISGFRKCKLPKLEATSAIEEDEMQPYASYTEKSNPLYDTVTKVEAFPVSQGEVNGTDCLTLSAIGI
other: neuronal death in co-culture: increases

Reference: article PMC6300008
